Measured values taken from patent publication US20110263827A1 (AbbVie / Abbott, published 2011).

Experiments:
ErbB3 = biological target: T1, ErbB3 (UniProt P21860 20-643, limits assumed, biotinylated); test: direct bind ELISA, C-term VD;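 note: ELISA with antibody or DVD-Ig preparations applied to target antigen-coated plates for 1 h at room temperature, TMB colour development, absorbance read at 450 nm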
T1 construct: ELISA antigen

EGFR = biological target: T2, EGFR (UniProt P00533 25-645, limits assumed, biotinylated); test: direct bind ELISA, N-term VD;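 note: antibody or DVD-Ig preparations bound to immobilized target antigen on ELISA plates, 1 h at room temperature, TMB detection read as absorbance at 450 nm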
T2 construct: ELISA antigen; construct not described

Row | Binder | EC50 (ErbB3) [nM] | EC50 (EGFR) [nM]
1 | DVD817 (bispecific antibody, DVD-Ig; HC L, LC S; variable parts only) VH: QVQLQESGPGLVKPSQTLSLTCTVSGYSISSDFAWNWIRQPPGKGLEWMGYISYSGNTRYQPSLKSRITISRDTSKNQFFLKLNSVTAADTATYYCVTAGRGFPYWGQGTLVTVSSASTKGPSVFPLAPEVQLLESGGGLVQPGGSLRLSCAASGFTFSHYVMAWVRQAPGKGLEWVSSISSSGGWTLYADSVKGRFTISRDNSKNTLYLQMNSLRAEDTAVYYCTRGLKMATIFDYWGQGTLVTVSS VL: DIQMTQSPSSMSVSVGDRVTITCHSSQDINSNIGWLQQKPGKSFKGLIYHGTNLDDGVPSRFSGSGSGTDYTLTISSLQPEDFATYYCVQYAQFPWTFGGGTKLEIKRTVAAPQSALTQPASVSGSPGQSITISCTGTSSDVGSYNVVSWYQQHPGKAPKLIIYEVSQRPSGVSNRFSGSKSGNTASLTISGLQTEDEADYYCCSYAGSSIFVIFGGGTKVTVLG | 18.8 | 5.33
2 | DVD801 (bispecific antibody, DVD-Ig; HC L, LC S; variable parts only) VH: QVQLQESGPGLVKPSQTLSLTCTVSGYSISSDFAWNWIRQPPGKGLEWMGYISYSGNTRYQPSLKSRITISRDTSKNQFFLKLNSVTAADTATYYCVTAGRGFPYWGQGTLVTVSSASTKGPSVFPLAPEVQLVESGGGLVQPGGSLRLSCAASGFTFSIYSMNWVRQAPGKGLEWVSYISSSSSTIYYADSVKGRFTISRDNAKNSLYLQMNSLRDEDTAVYYCARDRGDFDAFDIWGQGTMVTVSS VL: DIQMTQSPSSMSVSVGDRVTITCHSSQDINSNIGWLQQKPGKSFKGLIYHGTNLDDGVPSRFSGSGSGTDYTLTISSLQPEDFATYYCVQYAQFPWTFGGGTKLEIKRTVAAPDIQMTQSPSSLSASVGDRVTITCQASQDITNYLNWYQQKPGKAPKLLIYDASNLETGVPSRFSGSGSGTDFTFTISSLQPEDIATYNCQQCENFPITFGQGTRLEIKR | 3.28 | 3.91
3 | DVD799 (bispecific antibody, DVD-Ig; HC L, LC S; variable parts only) VH: QVQLQESGPGLVKPSQTLSLTCTVSGYSISSDFAWNWIRQPPGKGLEWMGYISYSGNTRYQPSLKSRITISRDTSKNQFFLKLNSVTAADTATYYCVTAGRGFPYWGQGTLVTVSSASTKGPSVFPLAPQVQLQQWGAGLLKPSETLSLTCAVYGGSFSGYYWSWIRQPPGKGLEWIGEINHSGSTNYNPSLKSRVTISVETSKNQFSLKLSSVTAADTAVYYCARDKWTWYFDLWGRGTLVTVSS VL: DIQMTQSPSSMSVSVGDRVTITCHSSQDINSNIGWLQQKPGKSFKGLIYHGTNLDDGVPSRFSGSGSGTDYTLTISSLQPEDFATYYCVQYAQFPWTFGGGTKLEIKRTVAAPDIEMTQSPDSLAVSLGERATINCRSSQSVLYSSSNRNYLAWYQQNPGQPPKLLIYWASTRESGVPDRFSGSGSGTDFTLTISSLQAEDVAVYYCQQYYSTPRTFGQGTKVEIKR | 20 | 5.76

Second part, the binder after the results:

Row | EC50 (ErbB3) [nM] | EC50 (EGFR) [nM] | Binder
4 | 14.4 | 3.78 | DVD787 (bispecific antibody, DVD-Ig; HC L, LC L; variable parts only) VH: QVQLQESGPGLVKPSQTLSLTCTVSGYSISSDFAWNWIRQPPGKGLEWMGYISYSGNTRYQPSLKSRITISRDTSKNQFFLKLNSVTAADTATYYCVTAGRGFPYWGQGTLVTVSSASTKGPSVFPLAPEVQLLESGGGLVQPGGSLRLSCAASGFTFSHYVMAWVRQAPGKGLEWVSSISSSGGWTLYADSVKGRFTISRDNSKNTLYLQMNSLRAEDTAVYYCTRGLKMATIFDYWGQGTLVTVSS VL: DIQMTQSPSSMSVSVGDRVTITCHSSQDINSNIGWLQQKPGKSFKGLIYHGTNLDDGVPSRFSGSGSGTDYTLTISSLQPEDFATYYCVQYAQFPWTFGGGTKLEIKRTVAAPSVFIFPPQSALTQPASVSGSPGQSITISCTGTSSDVGSYNVVSWYQQHPGKAPKLIIYEVSQRPSGVSNRFSGSKSGNTASLTISGLQTEDEADYYCCSYAGSSIFVIFGGGTKVTVLG
5 | 1.38 | 4.43 | DVD771 (bispecific antibody, DVD-Ig; HC L, LC L; variable parts only) VH: QVQLQESGPGLVKPSQTLSLTCTVSGYSISSDFAWNWIRQPPGKGLEWMGYISYSGNTRYQPSLKSRITISRDTSKNQFFLKLNSVTAADTATYYCVTAGRGFPYWGQGTLVTVSSASTKGPSVFPLAPEVQLVESGGGLVQPGGSLRLSCAASGFTFSIYSMNWVRQAPGKGLEWVSYISSSSSTIYYADSVKGRFTISRDNAKNSLYLQMNSLRDEDTAVYYCARDRGDFDAFDIWGQGTMVTVSS VL: DIQMTQSPSSMSVSVGDRVTITCHSSQDINSNIGWLQQKPGKSFKGLIYHGTNLDDGVPSRFSGSGSGTDYTLTISSLQPEDFATYYCVQYAQFPWTFGGGTKLEIKRTVAAPSVFIFPPDIQMTQSPSSLSASVGDRVTITCQASQDITNYLNWYQQKPGKAPKLLIYDASNLETGVPSRFSGSGSGTDFTFTISSLQPEDIATYNCQQCENFPITFGQGTRLEIKR
6 | 8.23 | 3.59 | DVD769 (bispecific antibody, DVD-Ig; HC L, LC L; variable parts only) VH: QVQLQESGPGLVKPSQTLSLTCTVSGYSISSDFAWNWIRQPPGKGLEWMGYISYSGNTRYQPSLKSRITISRDTSKNQFFLKLNSVTAADTATYYCVTAGRGFPYWGQGTLVTVSSASTKGPSVFPLAPQVQLQQWGAGLLKPSETLSLTCAVYGGSFSGYYWSWIRQPPGKGLEWIGEINHSGSTNYNPSLKSRVTISVETSKNQFSLKLSSVTAADTAVYYCARDKWTWYFDLWGRGTLVTVSS VL: DIQMTQSPSSMSVSVGDRVTITCHSSQDINSNIGWLQQKPGKSFKGLIYHGTNLDDGVPSRFSGSGSGTDYTLTISSLQPEDFATYYCVQYAQFPWTFGGGTKLEIKRTVAAPSVFIFPPDIEMTQSPDSLAVSLGERATINCRSSQSVLYSSSNRNYLAWYQQNPGQPPKLLIYWASTRESGVPDRFSGSGSGTDFTLTISSLQAEDVAVYYCQQYYSTPRTFGQGTKVEIKR
7 | 485 | 3.98 | DVD327 (bispecific antibody, DVD-Ig; HC S, LC S; variable parts only) VH: QVQLQESGPGLVKPSQTLSLTCTVSGYSISSDFAWNWIRQPPGKGLEWMGYISYSGNTRYQPSLKSRITISRDTSKNQFFLKLNSVTAADTATYYCVTAGRGFPYWGQGTLVTVSSASTKGPQVQLQQWGAGLLKPSETLSLTCAVYGGSFSGYYWSWIRQPPGKGLEWIGEINHSGSTNYNPSLKSRVTISVETSKNQFSLKLSSVTAADTAVYYCARDKWTWYFDLWGRGTLVTVSS VL: DIQMTQSPSSMSVSVGDRVTITCHSSQDINSNIGWLQQKPGKSFKGLIYHGTNLDDGVPSRFSGSGSGTDYTLTISSLQPEDFATYYCVQYAQFPWTFGGGTKLEIKRTVAAPDIEMTQSPDSLAVSLGERATINCRSSQSVLYSSSNRNYLAWYQQNPGQPPKLLIYWASTRESGVPDRFSGSGSGTDFTLTISSLQAEDVAVYYCQQYYSTPRTFGQGTKVEIKR
8 | 481 | 3.82 | DVD329 (bispecific antibody, DVD-Ig; HC S, LC S; variable parts only) VH: QVQLQESGPGLVKPSQTLSLTCTVSGYSISSDFAWNWIRQPPGKGLEWMGYISYSGNTRYQPSLKSRITISRDTSKNQFFLKLNSVTAADTATYYCVTAGRGFPYWGQGTLVTVSSASTKGPEVQLVESGGGLVQPGGSLRLSCAASGFTFSIYSMNWVRQAPGKGLEWVSYISSSSSTIYYADSVKGRFTISRDNAKNSLYLQMNSLRDEDTAVYYCARDRGDFDAFDIWGQGTMVTVSS VL: DIQMTQSPSSMSVSVGDRVTITCHSSQDINSNIGWLQQKPGKSFKGLIYHGTNLDDGVPSRFSGSGSGTDYTLTISSLQPEDFATYYCVQYAQFPWTFGGGTKLEIKRTVAAPDIQMTQSPSSLSASVGDRVTITCQASQDITNYLNWYQQKPGKAPKLLIYDASNLETGVPSRFSGSGSGTDFTFTISSLQPEDIATYNCQQCENFPITFGQGTRLEIKR
